The values that follow come from patent publication US12233115B2, “Long-acting parathyroid hormone” (Extend Biosciences, Inc., priority 2022, dated 2025).

Like-named read-outs stand apart in the source and are kept apart here.

As usually defined, the solubility is the dissolved amount per volume that the medium holds.

One series concerns the target T1, DBP (Homo sapiens, UniProt P02774).
T1 sequence (P02774 17-474): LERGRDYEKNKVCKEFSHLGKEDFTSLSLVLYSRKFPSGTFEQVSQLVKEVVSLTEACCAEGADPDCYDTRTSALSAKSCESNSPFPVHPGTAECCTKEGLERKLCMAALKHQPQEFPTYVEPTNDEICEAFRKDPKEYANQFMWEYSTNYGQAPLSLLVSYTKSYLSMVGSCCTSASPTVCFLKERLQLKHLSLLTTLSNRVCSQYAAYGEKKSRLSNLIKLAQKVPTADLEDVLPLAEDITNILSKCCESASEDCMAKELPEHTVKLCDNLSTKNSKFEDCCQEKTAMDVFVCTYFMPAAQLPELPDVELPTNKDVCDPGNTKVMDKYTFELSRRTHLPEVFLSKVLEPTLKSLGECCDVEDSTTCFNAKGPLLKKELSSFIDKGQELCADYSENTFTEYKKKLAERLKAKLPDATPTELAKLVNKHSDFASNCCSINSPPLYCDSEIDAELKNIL
The following applies: Norman et al. 2001, p. 51; cited from earlier work.

The nature of a further series: Solubility in PBS (A280). It is filed as physicochemical. The method, then:
PEG Length and Counterion Affects Solubility: The solubility of the acetate and carbonate salt form of each compound was determined as follows. For EXT611, EXT606, and EXT608, phosphate buffered saline (PBS) was added to each compound to form a saturated solution. Undissolved compound was removed by centrifugation. The concentration of dissolved compound was determined by measuring the absorbance at 280 nm using an extinction coefficient of 18,600 M^−1 cm^−1. For EXT615, EXT616, and EXT617, solubility was limited practically by the high viscosity imparted by the large PEG moieties. Highly viscous drug formulations are difficult to manipulate and require large needle bore sizes that cause increased injection site pain. PBS was added to EXT615, EXT616, and EXT617 incrementally until a solution was obtained that could be successfully pipetted through a pipet tip with a bore of approximately 1 mm diameter (enlarged by removing the end with a razor blade). The concentration of dissolved compound was determined by measuring the absorbance at 280 nm using an extinction coefficient of 18,600 M^−1 cm^−1. […] For EXT608, the acetate salt was 17.6-fold more soluble than the carbonate salt.

The conditions of series [1]: human, in vivo, cited from earlier work.
In the next series the test system is VDRnuc. The following applies: Norman et al. 2001, p. 51; cited from earlier work.

Regarding 25-hydroxyvitamin D [25(OH)D3], on DBP, the “fold tighter binding to DBP than 1α,25(OH)2D3” value is given as 668 fold.
Consider `C=C1CC[C@H](OCCCNC(=O)CCOCCOCCOCCOCCOCCOCCOCCOCCOCCOCCOCCOCCOCCOCCOCCOCCOCCOCCOCCOCCOCCOCCOCCOCCNC(=O)CCN2C(=O)CC(SC[C@H](NC(=O)[C@H](Cc3ccccc3)NC(=O)[C@H](CC(N)=O)NC(=O)[C@H](Cc3c[nH]cn3)NC(=O)[C@@H](NC(=O)[C@H](CC(=O)O)NC(=O)[C@H](CCC(N)=O)NC(=O)[C@H](CC(C)C)NC(=O)[C@H](CCCCN)NC(=O)[C@H](CCCCN)NC(=O)[C@H](CCCNC(=N)N)NC(=O)[C@H](CC(C)C)NC(=O)[C@H](Cc3c[nH]c4ccccc34)NC(=O)[C@H](CCC(=O)O)NC(=O)[C@@H](NC(=O)[C@H](CCCNC(=N)N)NC(=O)[C@H](CCC(=O)O)NC(=O)[C@H](CCSC)NC(=O)[C@H](CO)NC(=O)[C@H](CC(N)=O)NC(=O)[C@H](CC(C)C)NC(=O)[C@H](Cc3c[nH]cn3)NC(=O)[C@H](CCCCN)NC(=O)CNC(=O)[C@H](CC(C)C)NC(=O)[C@H](CC(N)=O)NC(=O)[C@H](Cc3c[nH]cn3)NC(=O)[C@H](CCSC)NC(=O)[C@H](CC(C)C)NC(=O)[C@H](CCC(N)=O)NC(=O)[C@@H](NC(=O)[C@H](CCC(=O)O)NC(=O)[C@H](CO)NC(=O)[C@@H](NC(=O)[C@@H](N)CO)C(C)C)[C@@H](C)CC)C(C)C)C(C)C)C(N)=O)C2=O)C/C1=C/C=C1\CCC[C@]2(C)[C@@H]([C@H](C)CCCC(C)(C)O)CC[C@@H]12` (some centres unmarked) [EXT606], for which the solubility in the series “Solubility in PBS (A280)” (acetate salt, read-out: Solubility as Acetate) is 907 µM; in the series “Solubility in PBS (A280)” (carbonate salt, read-out: Solubility as Carbonate), 200 µM.
As to “PTH: Parathyroid hormone, polypeptide containing 84 amino acids (SEQ ID NO:2); literature half-life values”, in series [1] (iv), the plasma half-life result was “less than 15 minutes” and the serum half-life entry is “approximately 5 minutes”. In series [1] (sc), the apparent half-life is 1.5 to 2.5 h and the “plasma half-life (estimated)” value is 2 to 3 h.
Turning to `C=C1/C(=C\C=C2/CCC[C@]3(C)[C@@H]([C@H](C)CCCC(C)(C)O)CC[C@@H]23)C[C@@H](O)C[C@@H]1O` [1α,25(OH)2D3, 1,25-dihydroxyvitamin D3], the “fold tighter binding to VDRnuc than 25(OH)D3” value with VDRnuc is given as 668 fold.
